# According to paper PMC3458870 (PLoS ONE, 2012):
# Biological target: the molecule itself
# Experiment: SEC
protein,measurement,value
"truncated form of human PAH including the catalytic domain, hPAH(Gly103-Gln428) (domain or fragment) GATVHELSRDKKKDTVPWFPRTIQELDRFANQILSYGAELDADHPGFKDPVYRARRKQFADIAYNYRHGQPIPRVEYMEEEKKTWGTVFKTLKSLYKTHACYEYNHIFPLLEKYCGFHEDNIPQLEDVSQFLQTCTGFRLRPVAGLLSSRDFLGGLAFRVFHCTQYIRHGSKPMYTPEPDICHELLGHVPLFSDRSFAQFSQEIGLASLGAPDEYIEKLATIYWFTVEFGLCKQGDSIKAYGAGLLSSFGELQYCLSEKPKLLPLELEKTAIQNYTVTEFQPLYYVAESFNDAKEKVRNFAATIPRPFSVRYDPYTQRIEVLDNTQ",stoichiometry N,2
